Here are results for one protein from US20090099193.

This data set concerns the target TK substrate 1 (HTRF KinEASE-TK kit; Cisbio Inc.).

B1: EML4-ALK fusion polypeptide v3 having the FLAG tag at the N-terminus (protein)
chain: MDGFAGSLDDSISAASTSDVQDRLSALESRVQQQEDEITVLKAALADVLRRLAISEDHVASVKKSVSSKGQPSPRAVIPMSCITNGSGANRKPSHTSAVSIAGKETLSSAAKSGTEKKKEKPQGQREKKEESHSNDQSPQIRASPSPQPSSQPLQIHRQTPESKNATPTKSIKRPSPAEKSHNSWENSDDSRNKLSKIPSTPKLIPKVTKTADKHKDVIINQAKMSTRKKNSQVYRRKHQELQAMQMELQSPEYKLSKLRTSTIMTDYNPNYCFAGKTSSISDLKEVPRKNITLIRGLGHGAFGEVYEGQVSGMPNDPSPLQVAVKTLPEVCSEQDELDFLMEALIISKFNHQNIVRCIGVSLQSLPRFILLELMAGGDLKSFLRETRPRPSQPSSLAMLDLLHVARDIACGCQYLEENHFIHRDIAARNCLLTCPGPGRVAKIGDFGMARDIYRASYYRKGGCAMLPVKWMPPEAFMEGIFTSKTDTWSFGVLLWEIFSLGYMPYPSKSNQEVLEFVTSGGRMDPPKNCPGPVYRIMTQCWQHQPEDRPNFAIILERIEYCTQDPDVINTALPIEYGPLVEEEEKVPVRPKDPEGVPPLLVSQQAKREEERSPAAPPPLPTTSSGKAAKKPTAAEVSVRVPRGPAVEGGHVNMAFSQSNPPSELHRVHGSRNKPTSLWNPTYGSWFTEKPTKKNNPIAKKEPHERGNLGLEGSCTVPPNVATGRLPGASLLLEPSSLTANMKEVPLFRLRHFPCGNVNYGYQQQGLPLEAATAPGAGHYEDTILKSKNSMNQPGP
In the case of B1, the “count of HTRF (phosphorylation of the peptide substrate), 100 uM ATP against no ATP” value was “increased by about 20 times by the addition of ATP compare to no addition of ATP”.
